# Data from patent US10149824B2, “Reverse hexagonal mesophases (HII) and uses thereof” (YISSUM RESEARCH DEVELOPMENT COMPANY OF THE HEBREW …, priority 2009, dated 2018).
# Columns and labels:
# [1] = cubic phase; cited from earlier work
# [2] = ATR-FTIR secondary structure analysis of LSZ (amide I' band) as a function of pH; type: physicochemical
# Experimental: The spectra were recorded with 50 scans, with spectral resolution of 2 cm^−1, at room temperature.
# [3] = ATR-FTIR secondary structure of LSZ as a function of temperature; type: physicochemical
# Experimental: Proteins in general are known for their low stability at high temperatures.
# Further temperature increase confirmed the diverse denaturation mechanism. Up to 73° C., the α-helix and the random coil contents decreased in favor of γ-turn formation.
# [4] = ATR-FTIR secondary structure of LSZ under urea denaturation; type: physicochemical
# Excerpt: The α-helix to β-sheet transition in proteins is highly important for understanding their folding and biological functions. It is recognized that the α→β transition is probably responsible for several conformational diseases, such as Alzheimer disease, where the α-helical forms are normal and the β-sheet forms are amyloidogenic. Urea is an accepted denaturating agent, which may act in several molecular mechanisms. These possible pathways include direct interactions of urea with the protein, indirect effects by decreasing water-water interactions and hydrogen bond strength, and allowing the exposure of nonpolar groups of the protein to the solvent and combinations thereof.
# The β-sheet formation was detected by FTIR analysis at 1620 cm^−1 and it was associated with aggregation of the protein, caused by denaturation, in accordance with the literature. In contrast, within the hexagonal mesophase the α-helical conformation stayed intact up to 4M of urea.
# [5] = In vivo oral delivery of calcitonin in rats, plasma calcium levels; set-up: species or system Sprague-Dawley rats; settings: calcitonin solubilized in hexagonal liquid crystals and/or hexosomes
# Experimental: Male Sprague-Dawley rats (Orient Bio Inc, Korea), 7- to 8-weeks old, weighing 250-310 g, were used in the experiments. Animals were housed under a 12-h light-dark cycle, with food and water ad libitum. All animal handling was in accordance with the guidelines of Animal Care and Use Committee of the Korean Institute of Science and Technology.
# The technique of cannulation of the jugular vein and arterial has been developed to allow serial blood sampling from an animal. After anesthesia with 0.4 ml/kg of intraperitoneally administered Rumpun/Zoletile [1:2 (v/v)], an incision was made in the skin just above the right clavicle. After preparation of the jugular vein, it was ligated at the distal side. A cannula filled with heparinized normal saline (10 units/ml) was inserted until the tip reached into the right atrium. Arterial cannulation was performed according to the same methods. […]
# Calcium concentration at time zero was normalized as the reference level. […] The calcium level in plasma sample was determined using a commercial Calcium Colorimetric Assay Kit (K380-250, Biovision, Mountain View, Calif., USA). In short, plasma calcium was treated with o-cresolphthalein to form a purple colored complex which was measured at 575 nm. […]
# [6] = ATR-FTIR conformational stability of calcitonin in HII mesophase; type: physicochemical
# Excerpt: In order to overcome this problem, calcitonin was solubilized into the reverse hexagonal mesophase of the invention, as disclosed herein. Transition from random coil, which is characteristic to the stable and soluble state of the peptide to α helix and mainly β-sheet, which are responsible for the unfavorable aggregation, was detected using ATR-FTIR (FIG. 31). It is well documented that calcitonin is extremely unstable in aqueous solutions, which is reflected by a significant decrease of random coil content and simultaneous increase in the concentration of α helix and β-sheet. At room temperature this trend is observed already after ˜2 days. Using the ATR-FTIR technique, the embedment of calcitonin into the aqueous channels of HII mesophase was explored, indicating a significant improvement in the stability of the peptide (FIGS. 32a-c). […] Therefore, the opposite tendency of calcitonin stabilization in the hexagonal phase was detected, as compared to a water solution. Only after 27 days, the peptide stability decreased, as reflected by the decrease of the random coil content.
# [7] = type: in vitro ADME
# Excerpt: FIG. 24 presents the cumulative transdermal transport of 1 wt % desmopressin, (□) via water solution, (Δ) via HII mesophase.
# The applicability and efficiency the HII mesophase as carriers for a transdermal delivery of desmopressin as model peptide drug was studied. Such delivery was especially relevant since the high hydrophilicity of this peptide was the main reason for its uncontrolled fast release when used without a proper carrier.
# In the case of bulk hexagonal mesophase, reduced values of steady-state flux were obtained for the drug and its permeability coefficients through the skin, as compared to a water solution. In other words, the peptide molecules penetrated more easily and freely through the skin from water solution, than from hexagonal phase vehicles. […] The drug probably accumulated in microfissures and in a three-dimensional network of thin threads of the skin.
# [8] = water solution, after urea denaturation (starting from 2M urea)
# [9] = water solution, before the urea-induced decrease
molecule,measurement,setting,value
LSZ: hydrophilic protein (14.4 KDa) used as model protein solubilized in the HII mesophase,time in which the bulk of the release occurred,[1],a week
same,secondary structure on incorporation into hexagonal phase,"[2]; HII mesophase, pH 1.5 to 6",no modifications
same,random coil structure content,"[2]; LSZ solution in D2O, pH 1.5",0.22
same,α-helix content,"[2]; LSZ solution in D2O, pH 1.5",0.78
same,random coil structure content,"[2]; LSZ solution in D2O, pH 11.14",0.4
same,random coil content within HII mesophases compared to D2O,[2]; pH from 6 to 11,lower
same,α-helix content within HII mesophases compared to D2O,[2]; pH from 6 to 11,considerably higher
same,temperature from which LSZ denaturation occurs,[3]; D2O,63 °C
same,random coil content,"[3]; D2O, 60° C.",~0.3
same,α-helix content,"[3]; D2O, 60° C.",~0.7
same,random coil content,"[3]; D2O, 65° C.",0.62
same,α-helix content,"[3]; D2O, 65° C.",0.34
same,α-helix content,"[3]; LSZ loaded HII mesophase, 60° C.",~0.7
same,γ-turn content,"[3]; LSZ loaded HII mesophase, 63-65° C.",0.1
same,α-helix content,"[3]; LSZ loaded HII mesophase, 65° C.",0.61
same,γ-turn content,"[3]; LSZ loaded HII mesophase, before 63-65° C.",0
same,random coil content,"[3]; LSZ loaded HII mesophase, between 63-65° C.",preserved
same,β-sheet content within HII mesophase compared to water solution,[4]; urea,significantly lower
same,random coil content,[4]; [8],0.03
same,α-helix content,[4]; [8],0.21
same,random coil content,[4]; [9],0.27
same,α-helix content,[4]; [9],0.73
same,random coil content,"[4]; water solution, urea (comparison with HII)",0.06
same,β-sheet content,"[4]; water solution, urea denaturation",up to 0.69
same,random coil content,"[4]; within the HII mesophase, urea",0.18
same,urea concentration up to which α-helical conformation stayed intact,[4]; within the hexagonal mesophase,up to 4 M
calcitonin,plasma levels of calcium,[5],significantly reduced
same,random coil structure content,"[6]; in HII mesophase, pH 3 and 5, 27th day",~100%
same,content of α helix and β-sheet forms as a function of time,"[6]; in HII mesophase, pH 3 to 9",drastically decreased
same,time after which the peptide stability decreased,[6]; in reverse hexagonal phase,27 days
same,time for which sCT conformational stability is maintained,[6]; solubilized within hexagonal mesophases,more than 20 days
cytochrome C: intermediate sized protein released from cubic phase [reference compound],time in which the bulk of the release occurred,[1],a week
NC(=O)CC[C@@H]1NC(=O)[C@H](Cc2ccccc2)NC(=O)[C@H](Cc2ccc(O)cc2)NC(=O)CCSSC[C@@H](C(=O)N2CCC[C@H]2C(=O)N[C@H](CCCN=C(N)N)C(=O)NCC(N)=O)NC(=O)[C@H](CC(N)=O)NC1=O [desmopressin],permeability coefficients through the skin,[7],reduced
same,release via the HII mesophase,[7],sustained release
same,steady-state flux,[7],reduced
"myoglobin: intermediate sized protein released from cubic phase (protein, UniProt P68082 2-154, looked up) Myoglobin: GLSDGEWQQVLNVWGKVEADIAGHGQEVLIRLFTGHPETLEKFDKFKHLKTEAEMKASEDLKKHGTVVLTALGGILKKKGHHEAELKPLAQSHATKHKIPIKYLEFISDAIIHVLHSKHPGDFGADAQGAMTKALELFRNDIAAKYKELGFQG",time in which the bulk of the release occurred,[1],a week
